One experiment addresses T1, Mft1 (S. cerevisiae, UniProt P33441 1-392).
T1 sequence: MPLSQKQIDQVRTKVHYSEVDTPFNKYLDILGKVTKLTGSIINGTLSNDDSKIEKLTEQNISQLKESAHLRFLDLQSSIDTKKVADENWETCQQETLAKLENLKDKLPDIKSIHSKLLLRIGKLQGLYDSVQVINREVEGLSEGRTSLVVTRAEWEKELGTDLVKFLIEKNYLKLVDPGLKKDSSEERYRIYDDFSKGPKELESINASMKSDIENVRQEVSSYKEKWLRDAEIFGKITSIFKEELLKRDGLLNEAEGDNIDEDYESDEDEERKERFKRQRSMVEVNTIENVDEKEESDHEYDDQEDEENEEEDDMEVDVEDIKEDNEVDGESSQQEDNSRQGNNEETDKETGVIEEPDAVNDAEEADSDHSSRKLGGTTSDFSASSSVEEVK
In words: cross-linking.

Another experiment addresses Tho2 (S. cerevisiae, UniProt P53552 1-1597). In words: affinity purification with mass spectrometry.

2 molecules from paper doi:10.1101/2023.06.23.546279 (bioRxiv, 2023) can be followed below.

Chain of Tho2 (P53552 whole entry): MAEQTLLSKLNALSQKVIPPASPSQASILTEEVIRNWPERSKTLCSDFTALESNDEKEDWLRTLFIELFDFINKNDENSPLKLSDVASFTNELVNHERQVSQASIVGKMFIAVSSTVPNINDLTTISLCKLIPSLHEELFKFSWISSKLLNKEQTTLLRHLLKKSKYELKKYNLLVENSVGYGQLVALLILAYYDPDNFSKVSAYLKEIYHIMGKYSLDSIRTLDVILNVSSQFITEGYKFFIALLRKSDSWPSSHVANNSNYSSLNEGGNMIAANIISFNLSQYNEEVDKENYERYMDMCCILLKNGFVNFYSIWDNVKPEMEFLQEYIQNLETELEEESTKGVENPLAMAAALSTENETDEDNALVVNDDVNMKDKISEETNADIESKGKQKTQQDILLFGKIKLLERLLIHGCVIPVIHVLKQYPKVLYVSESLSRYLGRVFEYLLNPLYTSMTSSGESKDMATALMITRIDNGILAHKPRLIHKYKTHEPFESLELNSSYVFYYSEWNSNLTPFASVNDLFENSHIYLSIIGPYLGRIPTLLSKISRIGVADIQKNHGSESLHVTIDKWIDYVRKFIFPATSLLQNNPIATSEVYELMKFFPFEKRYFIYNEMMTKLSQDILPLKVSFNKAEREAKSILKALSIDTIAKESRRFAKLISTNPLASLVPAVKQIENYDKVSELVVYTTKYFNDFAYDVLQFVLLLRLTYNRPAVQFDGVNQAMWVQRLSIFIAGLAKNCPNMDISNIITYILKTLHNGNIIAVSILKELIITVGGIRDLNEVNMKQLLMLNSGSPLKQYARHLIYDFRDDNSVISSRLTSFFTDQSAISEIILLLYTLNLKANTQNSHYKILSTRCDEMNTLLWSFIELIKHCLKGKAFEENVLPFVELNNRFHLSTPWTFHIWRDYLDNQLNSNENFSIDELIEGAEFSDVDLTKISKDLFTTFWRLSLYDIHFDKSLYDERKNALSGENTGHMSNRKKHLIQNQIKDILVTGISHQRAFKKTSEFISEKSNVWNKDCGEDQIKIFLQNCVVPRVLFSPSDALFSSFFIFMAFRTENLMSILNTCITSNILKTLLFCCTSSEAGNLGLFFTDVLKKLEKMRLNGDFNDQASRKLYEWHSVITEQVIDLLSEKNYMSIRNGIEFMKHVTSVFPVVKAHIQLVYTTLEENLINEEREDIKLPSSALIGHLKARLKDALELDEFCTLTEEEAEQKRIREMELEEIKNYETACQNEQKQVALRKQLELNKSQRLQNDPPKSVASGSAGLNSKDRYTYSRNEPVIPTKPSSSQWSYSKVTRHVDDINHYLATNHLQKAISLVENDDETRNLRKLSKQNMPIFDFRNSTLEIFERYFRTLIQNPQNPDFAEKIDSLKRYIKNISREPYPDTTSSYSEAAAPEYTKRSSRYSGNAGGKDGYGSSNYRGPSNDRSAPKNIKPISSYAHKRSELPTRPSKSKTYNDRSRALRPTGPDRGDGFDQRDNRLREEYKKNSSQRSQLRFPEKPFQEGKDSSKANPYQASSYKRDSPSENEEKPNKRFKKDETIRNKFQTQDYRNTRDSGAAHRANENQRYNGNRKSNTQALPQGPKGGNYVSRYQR

B1: Thp2 (natural protein)
chain: MTKEEGRTYFESLCEEEQSLQESQTHLLNILDILSVLADPRSSDDLLTESLKKLPDLHRELINSSIRLRYDKYQTREAQLLEDTKTGRDVAAGVQNPKSISEYYSTFEHLNRDTLRYINLLKRLSVDLAKQVEVSDPSVTVYEMDKWVPSEKLQGILEQYCAPDTDIRGVDAQIKNYLDQIKMARAKFGLENKYSLKERLSTLTKELNHWRKEWDDIEMLMFGDDAHSMKKMIQKIDSLKSEINAPSESYPVDKEGDIVLE
Regarding B1, in the experiment with Mft1, the binding result is “binds”.

B2: Hpr1 with a C-terminal FLAG-TEV-2xProtein-A (FTpA) tag (natural protein)
chain: MSNTEELIQNSIGFLQKTFKALPVSFDSIRHEPLPSSMLHASVLNFEWEPLEKNISAIHDRDSLIDIILKRFIIDSMTNAIEDEEENNLEKGLLNSCIGLDFVYNSRFNRSNPASWGNTFFELFSTIIDLLNSPSTFLKFWPYAESRIEWFKMNTSVEPVSLGESNLISYKQPLYEKLRHWNDILAKLENNDILNTVKHYNMKYKLENFLSELLPINEESNFNRSASISALQESDNEWNRSARERESNRSSDVIFAADYNFVFYHLIICPIEFAFSDLEYKNDVDRSLSPLLDAILEIEENFYSKIKMNNRTRYSLEEALNTEYYANYDVMTPKLPVYMKHSNAMKMDRNEFWANLQNIKESDDYTLRPTIMDISLSNTTCLYKQLTQEDDDYYRKQFILQLCFTTNLIRNLISSDETRNFYKSCYLRENPLSDIDFENLDEVNKKRGLNLCSYICDNRVLKFYKIKDPDFYRVIRKLMSSDEKFTTAKIDGFKEFQNFRISKEKIPPPAFDETFKKFTFIKMGNKLINNVWKIPTGLDKIEQEVKKPEGVYEAAQAKWESKISSETSGGEAKDEIIRQWQTLRFLRSRYLFDFDKVNEKTGVDGLFEEPRKVEALDDSFKEKLLYKINQEHRKKLQDAREYKIGKERKKRALEEEASFPEREQKIKSQRINSASQTEGDELKSEQTQPKGEISEENTKIKSSEVSSQDPDSGVAGEFAPQNTTAQLENPKTEDNNAATSNISNGSSTQDMK
Regarding B2, the binding result with Tho2 is reported as “binds”.
